The text below walks through data of patent US20260027153A1 (published 2026).

The target in experiment [1] is HLA-A*02:01 restricted NY-ESO-1 C9V peptide (…) pMHC (human). Nature of the experiment: transduced PBMCs loaded on pMHC-labeled nanovials (20 µg/ml pMHC), flow cytometry.
The target is the same in experiment [2]. Nature of the experiment: transduced PBMCs loaded on pMHC-labeled nanovials (20 µg/ml pMHC), anti-NGFR staining, flow cytometry. A general note: A flow cytometer gives signals particle by particle.
Experiment [3] deals with T1, SCAMP3 (secretory carrier-associated membrane protein 3), cancer-enhanced splicing epitope peptide on … (human).
T1 peptide: STMYYLWML
In words: multimer staining.

Experiment [4] deals with T2, MEAF6 (MYST/Esa1 associated factor 6) splicing variant peptide on HLA-A*02:01 (human).
T2 peptide: SGMFDYDFEYV
In words: multimer staining.

Take 1G4 TCR: in experiment [1], the fraction of nanovials occupied by live cells amounted to 17%. The fraction of nanovial-bound live cells with NGFR expression in experiment [2] worked out at 93.9%.

B1: NVTCR19 (TCR, V domains shown)
Valpha: KQEVTQIPAALSVPEGENLVLNCSFTDSAIYNLQWFRQDPGKGLTSLLLIQSSQREQTSGRLNASLDKSSGRSTLYIAASQPGDSATYLCAVTSGGSYIPTFGRGTSLIVHP
Vbeta: DGGITQSPKYLFRKEGQNVTLSCEQNLNHDAMYWYRQDPGQGLRLIYYSQIVNDFQKGDIAEGYSVSREKKESFPLTVTSAQKNPTAFYLCASSDPFRSGTDSPLHFGNGTRLTVT
For B1, the binding result in experiment [3] was “recognises”.

B2: NVTCR21 (TCR, V domains shown)
Valpha: AQSVAQPEDQVNVAEGNPLTVKCTYSVSGNPYLFWYVQYPNRGLQFLLKYITGDNLVKGSYGFEAEFNKSQTSFHLKKPSALVSDSALYFCAVRDTPSGSARQLTFGSGTQLTVLP
Vbeta: GAGVSQTPSNKVTEKGKYVELRCDPISGHTALYWYRQSLGQGPEFLIYFQGTGAADDSGLPNDRFFAVRPEGSVSTLKIQRTERGDSAVYLCASSLTSSGGGPYNEQFFGPGTRLTVL
In the case of B2, the binding result in experiment [4] is listed as “recognises”.

B3: NVTCR11 (TCR, V domains shown)
Valpha: GIQVEQSPPDLILQEGANSTLRCNFSDSVNNLQWFHQNPWGQLINLFYIPSGTKQNGRLSATTVATERYSLLYISSSQTTDSGVYFCAVDLNDYKLSFGAGTTVTVRA
Vbeta: NAGVTQTPKFRVLKTGQSMTLLCAQDMNHEYMYWYRQDPGMGLRLIHYSVGEGTTAKGEVPDGYNVSRLKKQNFLLGLESAAPSQTSVYFCASSSHGSTGELFFGEGSRLTVL
With B3, the binding result in experiment [3] was “recognises”.
